Laboratory results reported in publication PMC9464592 (Nature, 2022).

Tests used:
Test in all cases: SEC
MIOS A560E = target: T1, MIOS A560E (human, UniProt Q9NXC5 1-875, A560E)
T1 sequence: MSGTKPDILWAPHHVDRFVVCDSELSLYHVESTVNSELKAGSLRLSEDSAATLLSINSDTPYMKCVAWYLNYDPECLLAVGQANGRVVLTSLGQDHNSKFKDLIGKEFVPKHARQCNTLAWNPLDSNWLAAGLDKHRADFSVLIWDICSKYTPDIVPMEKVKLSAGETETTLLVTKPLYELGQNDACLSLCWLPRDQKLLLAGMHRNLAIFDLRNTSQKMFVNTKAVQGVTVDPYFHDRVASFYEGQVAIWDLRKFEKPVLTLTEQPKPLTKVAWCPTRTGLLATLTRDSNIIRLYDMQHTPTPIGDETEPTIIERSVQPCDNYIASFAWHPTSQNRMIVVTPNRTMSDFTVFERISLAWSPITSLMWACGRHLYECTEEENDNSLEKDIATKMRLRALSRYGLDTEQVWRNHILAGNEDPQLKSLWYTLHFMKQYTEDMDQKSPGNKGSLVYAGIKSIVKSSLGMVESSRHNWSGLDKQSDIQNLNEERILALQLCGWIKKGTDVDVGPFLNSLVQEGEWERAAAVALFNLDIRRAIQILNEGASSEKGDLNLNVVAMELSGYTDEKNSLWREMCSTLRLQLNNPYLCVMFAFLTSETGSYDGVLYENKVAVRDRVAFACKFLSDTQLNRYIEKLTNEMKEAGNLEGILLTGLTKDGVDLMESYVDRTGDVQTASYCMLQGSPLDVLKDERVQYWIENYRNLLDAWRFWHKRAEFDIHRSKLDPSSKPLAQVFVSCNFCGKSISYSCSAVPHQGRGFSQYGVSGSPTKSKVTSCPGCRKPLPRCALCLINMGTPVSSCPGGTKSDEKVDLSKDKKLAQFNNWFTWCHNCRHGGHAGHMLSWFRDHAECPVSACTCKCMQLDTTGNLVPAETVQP

WDR24 ∆CTD = target: T2, WDR24 ∆CTD (human, UniProt Q96S15 1-700)
T2 sequence (looked up): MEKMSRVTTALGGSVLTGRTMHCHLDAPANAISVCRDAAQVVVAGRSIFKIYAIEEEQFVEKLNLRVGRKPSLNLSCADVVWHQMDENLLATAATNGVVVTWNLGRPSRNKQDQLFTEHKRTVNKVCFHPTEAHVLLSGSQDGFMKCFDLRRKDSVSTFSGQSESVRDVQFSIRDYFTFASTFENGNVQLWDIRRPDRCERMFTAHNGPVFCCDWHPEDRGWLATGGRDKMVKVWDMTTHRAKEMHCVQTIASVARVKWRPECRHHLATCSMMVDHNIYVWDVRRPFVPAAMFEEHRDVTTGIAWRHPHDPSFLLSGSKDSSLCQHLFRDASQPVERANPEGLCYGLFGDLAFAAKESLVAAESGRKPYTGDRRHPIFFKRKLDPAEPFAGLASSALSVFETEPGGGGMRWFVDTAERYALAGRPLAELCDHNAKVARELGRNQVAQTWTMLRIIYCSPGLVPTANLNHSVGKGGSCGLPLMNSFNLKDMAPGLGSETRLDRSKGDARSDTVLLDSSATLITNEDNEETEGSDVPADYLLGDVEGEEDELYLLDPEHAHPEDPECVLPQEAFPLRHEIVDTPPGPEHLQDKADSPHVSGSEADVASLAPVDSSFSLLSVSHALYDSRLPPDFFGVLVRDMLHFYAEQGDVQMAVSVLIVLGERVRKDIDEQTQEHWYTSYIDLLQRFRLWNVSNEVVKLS

WDR59 ∆CTD = target: T3, WDR59 ∆CTD (human, UniProt Q6PJI9 1-890)
T3 sequence (looked up): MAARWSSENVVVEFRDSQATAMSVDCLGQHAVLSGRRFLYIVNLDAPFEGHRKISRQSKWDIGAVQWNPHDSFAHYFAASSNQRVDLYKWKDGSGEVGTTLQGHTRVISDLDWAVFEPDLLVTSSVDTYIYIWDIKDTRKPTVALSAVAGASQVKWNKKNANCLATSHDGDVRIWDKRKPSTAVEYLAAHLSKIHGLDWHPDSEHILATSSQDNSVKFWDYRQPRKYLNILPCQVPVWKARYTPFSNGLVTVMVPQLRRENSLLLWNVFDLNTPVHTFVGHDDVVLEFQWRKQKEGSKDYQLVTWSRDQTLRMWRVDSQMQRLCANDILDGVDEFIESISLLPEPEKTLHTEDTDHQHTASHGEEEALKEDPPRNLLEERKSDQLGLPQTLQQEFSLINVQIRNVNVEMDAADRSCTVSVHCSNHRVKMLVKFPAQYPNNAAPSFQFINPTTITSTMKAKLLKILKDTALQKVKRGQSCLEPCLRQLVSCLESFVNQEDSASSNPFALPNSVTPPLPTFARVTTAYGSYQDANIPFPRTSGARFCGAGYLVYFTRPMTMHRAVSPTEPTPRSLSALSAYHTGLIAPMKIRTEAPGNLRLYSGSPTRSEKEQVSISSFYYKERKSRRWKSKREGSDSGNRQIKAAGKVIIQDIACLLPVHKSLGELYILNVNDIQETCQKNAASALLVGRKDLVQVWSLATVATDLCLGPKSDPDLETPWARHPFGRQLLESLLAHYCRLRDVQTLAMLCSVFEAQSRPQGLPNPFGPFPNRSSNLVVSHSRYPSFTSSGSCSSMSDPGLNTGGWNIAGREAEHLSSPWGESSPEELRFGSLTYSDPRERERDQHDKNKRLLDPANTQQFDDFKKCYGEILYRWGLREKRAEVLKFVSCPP

- binding result (MIOS A560E): binds
- binding result (WDR24 ∆CTD): binds
- binding result (WDR59 ∆CTD): binds
B1: tag-free SEC13 (natural protein, human)
chain: MVSVINTVDTSHEDMIHDAQMDYYGTRLATCSSDRSVKIFDVRNGGQILIADLRGHEGPVWQVAWAHPMYGNILASCSYDRKVIIWREENGTWEKSHEHAGHDSSVNSVCWAPHDYGLILACGSSDGAISLLTYTGEGQWEVKKINNAHTIGCNAVSWAPAVVPGSLIDHPSGQKPNYIKRFASGGCDNLIKLWKEEEDGQWKEEQKLEAHSDWVRDVAWAPSIGLPTSTIASCSQDGRVFIWTCDDASSNTWSPKLLHKFNDVVWHVSWSITANILAVSGGDNKVTLWKESVDGQWVCISDVNKGQGSVSASVTEGQQNEQ
